Source: patent US20260132208A1 (DOMAIN THERAPEUTICS, published 2026)
Where “and” joins values, the source holds several entries; their conditions need not be identical. Identical values can stand only once. Like-named read-outs stand apart in the source and are kept apart here. Each block holds one binder with its values, some of them ahead of it.

How the values were obtained:
[1] = molecular target: T1, human CCR8 with a SNAP-tag at the N-terminus (human, UniProt P51685 1-355, SNAP-tag labelled covalently with Lumi4-Terbium); test: HTRF Tag-lite, inhibition of hCCL1-AF647 binding to SNAP-hCCR8 on HEK-293 cells
T1 construct: also called hCCR8 SNAP-tag; CCR8 SNAP-tag
Method: (§1) The inhibition of CCL1 binding to hCCR8 was evaluated with the Tag-Lite® technology from Cisbio (Revvity). Human CCR8 is engineered with a SNAP-tag at the N-terminus of the GPCR. hCCR8 SNAP-tag is transiently transfected on HEK-293 cell line using FuGene® (Promega, Madison, WI, USA). 48 hours after transfection, cells are labeled with the substrate Lumi4-Terbium® (Cisbio, Codolet, France) which covalently reacts with the SNAP-tag, for 1 h at 37° C. Thawed or freshly labeled cells are plated in a 384 low volume white plate (GREINER Bio-One, Courtaboeuf, France) (10000 cells/well/10 μl). […] The Kd was previously obtained in a saturation binding assay on the same cells. […] The plate is next incubated at 21° C. for 2 h. Detection of HTRF signal is performed on the multiplate reader EnVision (PerkinElmer, Waltham, MA, USA). The HTRF (665/620) ratio is calculated by EnVision software, the data exported are considered as the total binding. The specific binding is calculated then by subtracting the non-specific signal from the total binding. The Ki and IC₅₀ are calculated using the “One site-Fit Ki” and “One site-FitlogIC50” from GraphPad Prism 9 (Graphpad Software, San Diego, CA, USA), respectively.

[2] = molecular target: T1, human CCR8 with a SNAP-tag at the …; test: as above; remark: listed apart in the source
Method: as §1

pm1 = molecular target: T2, pm1 (sulfated tyrosine(s) among Y15, Y16, Y17; which ones is not told (the underlining of Table 1 is lost in the text)); test: ELISA on coated peptide [cont.]
T2 construct: also called sulfated CCR8 N-terminal peptide pm1
In short: (§2)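 Optical density after 15 min TMB development is the read-out, correlated with antibody binding to the coated peptide. Plates carried peptide at 500 ng/ml in carbonate/bicarbonate buffer. Antibodies were incubated at 1 μg/mL and at a tenfold dilution for 90 min at room temperature, followed by washes.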

pm8 = molecular target: T3, pm8 (Y15, Y16 and Y17 sulfated); test: ELISA on coated peptide [cont.]
T3 construct: also called sulfated CCR8 N-terminal peptide pm8
In short: as §2

pm2 = molecular target: T4, pm2 (sulfated tyrosine(s) among Y15, Y16, Y17; which ones is not told (the underlining of Table 1 is lost in the text)); test: ELISA on coated peptide [cont.]
T4 construct: also called sulfated CCR8 N-terminal peptide pm2
In short: as §2

pm5 = molecular target: T5, pm5 (Y15 and Y17 sulfated; Y16 not sulfated); test: ELISA on coated peptide [cont.]
T5 construct: also called sulfated CCR8 N-terminal peptide pm5
In short: as §2

pm3 = molecular target: T6, pm3 (Y17 sulfated; Y15 and Y16 not sulfated); test: ELISA on coated peptide [cont.]
T6 construct: also called sulfated CCR8 N-terminal peptide pm3
In short: as §2

pm4 = molecular target: T7, pm4 (sulfated tyrosine(s) among Y15, Y16, Y17; which ones is not told (the underlining of Table 1 is lost in the text)); test: ELISA on coated peptide [cont.]
T7 construct: also called sulfated CCR8 N-terminal peptide pm4
In short: as §2

pm6 = molecular target: T8, pm6 (Y16 and Y17 sulfated; Y15 not sulfated); test: ELISA on coated peptide [cont.]
T8 construct: also called sulfated CCR8 N-terminal peptide pm6
In short: as §2

human CCR8 [3] = molecular target: T9, human CCR8 (human, UniProt P51685 1-355); test: cell-based or functional assay
human CCR8 [4] = molecular target: T9, human CCR8; test: flow cytometry, inhibition of hCCL1-AF647 (10 nM) binding to hCCR8-CHO cells
In short: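 hCCR8-transfected CHO cells preincubated 30 min at 4 °C with anti-CCR8 mAb (8 concentrations, top 10 μg/mL, 1/3 dilutions), washed, then exposed to labelled CCL1. Bound CCL1 quantified by flow cytometry; IC₅₀ of binding blockade from sigmoidal variable-slope fit.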

human CCR8 [5] = molecular target: T9, human CCR8; test: flow cytometry, hCCR8-transfected CHO-K1 cells
In short: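 Antibody incubation ran 30 min at 4° C, followed by fluorescent anti-mouse or anti-human IgG secondary for 30 min at 4° C. Isotype-matched mAbs served as nonspecific-binding controls.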

human CCR8 [6] = molecular target: T9, human CCR8; test: cell-based or functional assay; remark: listed apart in the source
human CCR8 [7] = molecular target: T9, human CCR8; test: cell-based or functional assay; remark: listed apart in the source
human CCR8 [8] = molecular target: T9, human CCR8; test: flow cytometry competition on hCCR8 transfected CHO cells; blocked ligand hCCL1-AF647 [cont.]
Method: The hCCR8 transfected CHO cell line was dispatched at a density of 1.105 per well in a 96-well plate. Cells were incubated for 30 min at 4° C. with or without anti-CCR8 mAb tested at 10 μg/mL then diluted at 1/3. Unbound antibodies were washed away with PBS (Gibco, Villebon-sur-yvette, France) supplemented by 2% Fetal Bovine Serum (Invitrogen by Thermofisher Scientific, Illkirch-Graffenstaden, France) and 2 mM EDTA. […] After washing unbound ligands, CCL1 bound detection is quantified on a MacsQuant16 (Miltenyi, Gladbach, Germany) (R1 channel, 5 000 events per acquisition).
For IC₅₀ determination, a concentration response curve is performed using 8 concentrations of mAb. Curves are fitted and IC₅₀ of CCL1 binding blocking activity is calculated using the sigmoidal dose-response (variable slope) model on GraphPad Prism 9 (GraphPad Software, San Diego, CA, USA).

human CCR8 [9] = molecular target: T9, human CCR8; test: cell-based or functional assay; remark: listed apart in the source
pwt1 = molecular target: T10, pwt1 (none (unmodified peptide)); test: ELISA on coated peptide [cont.]
T10 construct: also called unmodified CCR8 N-terminal peptide
In short: as §2

human CCR8 [10] = molecular target: T9, human CCR8; test: cell-based or functional assay; remark: listed apart in the source
human CCR8 [11] = molecular target: T9, human CCR8; test: cell-based or functional assay; remark: listed apart in the source
human CCR8 [12] = molecular target: T9, human CCR8; test: flow cytometry, HUT78 cells (endogenous CCR8)
Method: In human activated T cells model, prior to mAb incubation, cells were first incubated with 200 nM of hCCL1 (R&D Systems, Minneapolis, MN, USA) or buffer PBS (Invitrogen by Thermofisher Scientific, Illkirch-Graffenstaden, France) supplemented by 2% Fetal Bovine Serum (Invitrogen by Thermofisher Scientific, Illkirch-Graffenstaden, France) and 2 mM EDTA (Invitrogen by Thermofisher Scientific, Illkirch-Graffenstaden, France) during 1 hour at 4° C. To determine EC50 value, 8 concentrations of anti-CCR8 mAb were tested. Unbound antibodies were washed away with PBS (Invitrogen by Thermofisher Scientific, Illkirch-Graffenstaden, France) supplemented by 2% Fetal Bovine Serum (Invitrogen by Thermofisher Scientific, Illkirch-Graffenstaden, France) and 2 mM EDTA (Invitrogen by Thermofisher Scientific, Illkirch-Graffenstaden, France). Subsequently, cells are centrifuged (5 min at 400 g) and bound antibody is detected with F(ab′)2-Goat anti-Mouse IgG (H+L) Cross-Adsorbed Secondary Antibody, Alexa Fluor 488 (dilution 1/500) (Invitrogen by Thermofisher Scientific, Illkirch-Graffenstaden, France) or with F(ab′)₂-Goat anti-Human IgG Fc Secondary Antibody, PE (Invitrogen by Thermofisher Scientific, Illkirch-Graffenstaden, France) (dilution 1/1000) at 4° C. for 30 min. Detection reagent is washed away and cells are centrifuged (5 min at 400 g) and resuspended in 30 μL PBS. Bound detection antibody is quantified on a MacsQuant16 (Miltenyi, Gladbach, Germany) (B1 or B2 channel, 5000 events per acquisition). During the experiment, the respective isotype mAb controls (mouse IgG1, mouse IgG2a, mouse IgG2b, mouse IgG3 or human IgG1) (Biolegend, Amsterdam, The Netherlands) are included to exclude any unspecific binding events. EC50 values were determined via nonlinear fit “log (agonist) vs.response—Variable slope (four parameters)” function of Graphpad prism. EC50 values were not constantly determined in the same experiments.
Anti-CCR8 mAb cellular reactivity was also evaluated on native human CCR8 from HUT78 cell line by flow cytometry. In Table 4.3, Mean Fluorescence Intensity (Fold change to isotype control), the percentage of labelled cells and EC50 in nM of some anti-CCR8 antibodies are presented.

T6 sequence (peptide, as listed by the source): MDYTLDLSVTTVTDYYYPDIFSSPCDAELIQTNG
T8 sequence (peptide, as listed by the source): as above
T3 sequence (peptide, as listed by the source): as above
T5 sequence (peptide, as listed by the source): as above
T7 sequence (peptide, as listed by the source): as above
T2 sequence (peptide, as listed by the source): as above
T4 sequence (peptide, as listed by the source): as above
T10 sequence (peptide, as listed by the source): as above

IC50 [1]: 0.02 µg/mL | Ki [1]: 0.01 µg/mL and 0.06 nM | IC50 [2]: 100 to 1000 pM | binding result (pm1): binds | binding result (pm8): binds | binding result (pm2): binds | binding result (pm5): binds | binding result (pm3): binds | binding result (pm4): binds | binding result (pm6): binds | IC50 of CCL1-induced hCCR8 Gi2 signaling (BRET, HEK-293) (human CCR8 [3]): 0.048 µg/mL and 0.318 nM
B1: anti-CCR8 mAb 1-19 (antibody, human IgG1, kappa, V domains shown)
VH: EVQLVESGGGLVQPGRSLRLSCTASGFTFNTYAMNWVRQAPGKGLEWVARIRSKSNNYATYYAASVKGRFTISRDDSKSIAYLQMNSLKTEDTAVYYCVRGREAYYRYDGGYYAMDVWGQGTTVTVSS
VL: DIVMTQAAPSLPVTPGESASISCRSSKSLLHSNGNTYLYWFLQKPGQSPQLLIYRMSNLASGVPDRFSGSGSGTAFTLKISRVEAEDVGVYYCMQHLEYPFTFGSGTKLEIKR
notes: Humanized mAb, human IgG1 / kappa

IC50 (human CCR8 [4]): ~0.91 µg/mL and 6.09 nM | % positive cells (human CCR8 [5]): 81.8% | MFI fold change to isotype ctrl (human CCR8 [5]): 16.2 fold | binding result (pm8): binds | binding result (pm5): binds | binding result (pm3): binds | binding result (pm6): binds | residual hCCL1 (100 nM) Gi2 response, protocol #2, mAb 0.08 µg/mL (human CCR8 [6]): 88% | residual hCCL1 (100 nM) Gi2 response, protocol #2, mAb 0.4 µg/mL (human CCR8 [6]): 57% | residual hCCL1 (100 nM) Gi2 response, protocol #2, mAb 10 µg/mL (human CCR8 [6]): 46% | residual hCCL1 (100 nM) Gi2 response, protocol #3, mAb 0.05 µg/mL (human CCR8 [6]): 73% | residual hCCL1 (100 nM) Gi2 response, protocol #3, mAb 0.5 µg/mL (human CCR8 [6]): 36% | residual hCCL1 (100 nM) Gi2 response, protocol #3, mAb 5 µg/mL (human CCR8 [6]): 36% | extrapolated top plateau of hCCL1 curve with 5 µg/mL mAb, protocol #3 (human CCR8 [7]): 533000 % of hCCL1 (100 nM) | IC50 of CCL1-induced hCCR8 Gi2 signaling (BRET, HEK-293) (human CCR8 [3]): 0.015 µg/mL and 0.1 nM | IC50 (read off the curve) (human CCR8 [8]): ~0.9 µg/mL
B2: anti-CCR8 mAb 1-9 (antibody, V domains shown)
VH: EVQLVESGGGLVQPKGSLKLSCAASGFTFNAYAMNWVRQAPGKGLEWLARIRSKSNNYATYYADSVKDRFTISRDDSQSMFYLQMNNLKSEDTAMYYCVRGREAYYRYDGGYYAMDYWGQGTSVTVSS
VL: EIVMTQAALSAPVTPGESVSMSCRSSKSLLHSNGNTYLYWFLQRPGQSPQLLIYRMSNLASGVPDRFSGSGSGTAFTLRISRVEAEDVGVYYCMQHLEYPFTFGSGTKLEIK
notes: Murine hybridoma mAb

IC50 [1]: 0.09 µg/mL and 0.6 nM | Ki [1]: 0.05 µg/mL and 0.3 nM | ADCC % max lysis, HUT78 targets, NK donor 1 (human CCR8 [9]): 30% | ADCC % max lysis, HUT78 targets, NK donor 2 (human CCR8 [9]): 28% | ADCC EC50, HUT78 targets, NK donor 1 (human CCR8 [9]): 6.43 pM | ADCC EC50, HUT78 targets, NK donor 2 (human CCR8 [9]): 0.42 pM | binding result (pm1): binds | binding result (pm8): binds | binding result (pm2): binds | binding result (pm5): binds | binding result (pwt1): binds | binding result (pm3): binds | binding result (pm4): binds | binding result (pm6): binds | IC50 of CCL1-induced hCCR8 Gi2 signaling (BRET), pH 6.5 (human CCR8 [10]): 0.025 µg/ml and 0.165 nM | IC50 of CCL1-induced hCCR8 Gi2 signaling (BRET), pH 7.4 (human CCR8 [10]): 0.035 µg/ml and 0.232 nM | residual hCCL1 (100 nM) Gi2 response, protocol #2, mAb 0.08 µg/mL (human CCR8 [6]): 74% | residual hCCL1 (100 nM) Gi2 response, protocol #2, mAb 0.4 µg/mL (human CCR8 [6]): 54% | residual hCCL1 (100 nM) Gi2 response, protocol #2, mAb 10 µg/mL (human CCR8 [6]): 40% | residual hCCL1 (100 nM) Gi2 response, protocol #3, mAb 0.05 µg/mL (human CCR8 [6]): 89% | residual hCCL1 (100 nM) Gi2 response, protocol #3, mAb 0.5 µg/mL (human CCR8 [6]): 63% | residual hCCL1 (100 nM) Gi2 response, protocol #3, mAb 5 µg/mL (human CCR8 [6]): 51% | extrapolated top plateau of hCCL1 curve with 5 µg/mL mAb, protocol #3 (human CCR8 [7]): 138000 % of hCCL1 (100 nM) | ADCP % max phagocytosis, HUT78 targets, MDM donor 9 (human CCR8 [11]): 9.65% | % of labelled cells (human CCR8 [12]): 32% | IC50 of CCL1-induced hCCR8 Gi2 signaling (BRET, HEK-293) (human CCR8 [3]): 0.035 µg/mL and 0.232 nM
B3: anti-CCR8 mAb 1-21 (antibody, human IgG1, kappa)
heavy: not shown
light: DIVMTQAAPSLSVTPGESASISCTSSKSLLHSNGNTYLYWFLQKPGQSPQLLIYRMSNLASGVPDRFSGSGSGTAFTLKISRVEAEDVGVYYCMQHREYPFTFGSGTKLEIKRTVAAPSVFIFPPSDEQLKSGTASVVCLLNNFYPREAKVQWKVDNALQSGNSQESVTEQDSKDSTYSLSSTLTLSKADYEKHKVYACEVTHQGLSSPVTKSFNRGEC
notes: Humanized mAb; Fc from human IgG1 allotype G1m17 with the terminal lysine deleted and the SDIE mutations (already in the entry)
